Experimental data as given in patent publication US20080300209, “GENE EXPRESSION AND PAIN” (ADYNXX, INC., published 2008).

B1: SEQ ID NO 42 fused EGR1 sites decoy (dsDNA)
DNA 1: GTATGCGTGGGCGGTGGGCGTAG
DNA 2: CTACGCCCACCGCCCACGCATAC
B2: SEQ ID NO 41 EGR1 consensus decoy (dsDNA)
DNA 1: GATGCGTGGGCGTAGG
DNA 2: CCTACGCCCACGCATC
B3: SEQ ID NO 40 double EGR1 site decoy (dsDNA)
DNA 1: GTTATGCGTGGGCGTAGATGCGGGGGCGTTATAG
DNA 2: CTATAACGCCCCCGCATCTACGCCCACGCATAAC

Columns and labels:
[1] = target: T1, EGR1 (endogenous, HL60 cells) (Homo sapiens, UniProt P18146 P18146:1-543); assay: cell_activity; inhibition of CDK5R1 mRNA in HL60 cells 48 h after vitamin D3; figure legend states 136 nM
T1 sequence (P18146 whole entry, one chain of several): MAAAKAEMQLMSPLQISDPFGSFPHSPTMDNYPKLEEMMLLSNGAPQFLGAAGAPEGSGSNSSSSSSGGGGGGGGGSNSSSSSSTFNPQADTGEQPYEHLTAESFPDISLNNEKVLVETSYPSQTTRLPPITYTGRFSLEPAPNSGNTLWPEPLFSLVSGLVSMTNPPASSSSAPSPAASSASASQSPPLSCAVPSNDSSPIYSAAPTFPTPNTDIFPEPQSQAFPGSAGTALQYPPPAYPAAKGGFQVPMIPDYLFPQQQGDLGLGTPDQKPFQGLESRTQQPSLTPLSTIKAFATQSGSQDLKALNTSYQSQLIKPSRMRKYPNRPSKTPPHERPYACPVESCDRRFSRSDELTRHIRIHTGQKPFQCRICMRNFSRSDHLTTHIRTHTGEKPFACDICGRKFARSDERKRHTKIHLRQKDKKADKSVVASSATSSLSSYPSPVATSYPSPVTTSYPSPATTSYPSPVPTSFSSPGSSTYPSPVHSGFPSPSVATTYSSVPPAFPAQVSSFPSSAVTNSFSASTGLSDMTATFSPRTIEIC

[2] = target: T2, EGR1 (Homo sapiens, UniProt P18146 P18146:1-543); assay: competition; ELISA vs 128 nM biotinylated SEQ 40 probe, 10 ug nuclear extract; conditions: protein: extract; tags: endogenous in nuclear extract of TPA-stimulated K-562 cells (Activemotif)
T2 sequence (P18146 whole entry, one chain of several): as above
Experimental: (§1) FIG. 2. A. Relative affinity. Quantitative competition ELISA involving hEGR1 were performed using a constant concentration of biotinylated SEQ ID NO.: 40 (128 nM) as the probe and 10 μg of protein extract. The probe-protein mix was incubated with increasing concentrations of SEQ ID NO.: 40, SEQ ID NO.: 41 or SEQ ID NO.: 42 competitors. The inhibition of hEGR1 binding by the probe was measured for each competitor at various concentrations and the resulting inhibition curves were fitted to an exponential decay model. […] Mean±SEM are given as a percentage of the maximum hEGR1 binding obtained with the probe in absence of competitor; n=2-4. B. Relative specificity. The relative binding of EGR1 oligonucleotide decoy sequences to hSP1 and hWT1 transcription factors was measured using quantitative ELISA. Top graph: representative OD binding values of SEQ ID NO.: 40 (128 nM) to either hSP1 or hWT1 transcription factors, as compared to hEGR1 binding, was detected with transcription factor-specific antibodies in either the presence or absence of SEQ ID NO.: 42 competitor (512 nM). For comparison, SEQ ID NO.: 11 binding to hSP1 is shown. […]
(§2) The affinity and specificity of decoy sequences for their transcription factor targets was measured with colorimetric transcription factor ELISA (Enzyme linked immuno adsorbent) kits (Panomics, Calif., USA). […]

[3] = target: T1, EGR1 (endogenous, HL60 cells); assay: cell_activity; inhibition of CDK5R1 mRNA in HL60 cells 48 h after vitamin D3; figure legend states 502 nM
[4] = target: T1, EGR1 (endogenous, HL60 cells); assay: cell_activity; inhibition of CDK5R1 mRNA in HL60 cells 48 h after vitamin D3; figure legend states 443 nM
[5] = target: T2, EGR1; assay: competition; ELISA; self-competition vs 128 nM biotinylated SEQ 40 probe, 10 ug nuclear extract; conditions: protein: extract; tags: endogenous in nuclear extract of TPA-stimulated K-562 cells (Activemotif); label: biotin (probe)
Experimental: as §1, §2

Binder | IC50 [1] | IC50 [2] | IC50 [3] | IC50 [4] | IC50 [5]
B1 | 0.15 µM | 0.099 µM | – | – | –
B2 | – | 0.25 µM | 0.529 µM | – | –
B3 | – | – | – | 0.544 µM | 0.215 µM
